B1: HCMV (Merlin strain; HHV5) protein UL11 (other)
chain: CIPVVGKIGTNVTLNAVDVLPPRDQVRWSYGPGGQGYMLCIFTGTSTTTFNNTRFNFSCLSNYSLLLINVTTQYSTTYRTMTSLDHWLHQRHNHGSRWTLDTCYNLTVNENGTFPTTTTKKPTTTTRTTTTTTQRTTTTRTTTTAKKTTISTTHHKHPSPKKSTTPNSHVEHHVGFEATAAETPLQPSPQHQHLATHALWVLAVVIVIIIIIIFYFRIPQKLWLLWQHDKHGIVLIPQTDL
notes: also called ULll
B2: a-CD45-sc (membrane-bound anti-CD45 single chain antibody with CD8a/CD28 stalk and CD34 transmembrane region) (scFv)
scFv: QVQLVESGGGLVQPGGSLKLSCAASGFDFSRYWMSWVRQAPGKGLEWIGEINPTSSTINFTPSLKDKVFISRDNAKNTLYLQMSKVRSEDTALYYCARGNYYRYGDAMDYWGQGTSVTVSKISGGGGSGGGGSGGGGSGGGGSGGGGSSDIVLTQSPASLAVSLGQRATISCRASKSVSTSGYSYLHWYQQKPGQPPKLLIYLASNLESGVPARFSGSGSGTDFTLNIHPVEEEDAATYYCQHSRELPFTFGSGTKLEIKSSGSGSPTTTPAPRPPTPAPTIASQPLSLRPEACRPAAGGAVHTRGLDFAPRKIEVMYPPPYLDNEKSNGTIIHVKGKHLCPSPLFPGPSKPTLIALVTSGALLAVLGITGYFL
notes: The molecule was expressed on the surface of K562 target cells; also called anti-CD45-sc; ai-CD45-sc

Biological target: T1, CD45 (receptor-type tyrosine-protein phosphatase C, PTPRC) (Homo sapiens, UniProt P08575 26-1306)
T1 construct: In the lysis assays CD45 is the endogenous protein on human PBMCs or NK92 effector cells; also called all isoforms of CD45
T1 sequence: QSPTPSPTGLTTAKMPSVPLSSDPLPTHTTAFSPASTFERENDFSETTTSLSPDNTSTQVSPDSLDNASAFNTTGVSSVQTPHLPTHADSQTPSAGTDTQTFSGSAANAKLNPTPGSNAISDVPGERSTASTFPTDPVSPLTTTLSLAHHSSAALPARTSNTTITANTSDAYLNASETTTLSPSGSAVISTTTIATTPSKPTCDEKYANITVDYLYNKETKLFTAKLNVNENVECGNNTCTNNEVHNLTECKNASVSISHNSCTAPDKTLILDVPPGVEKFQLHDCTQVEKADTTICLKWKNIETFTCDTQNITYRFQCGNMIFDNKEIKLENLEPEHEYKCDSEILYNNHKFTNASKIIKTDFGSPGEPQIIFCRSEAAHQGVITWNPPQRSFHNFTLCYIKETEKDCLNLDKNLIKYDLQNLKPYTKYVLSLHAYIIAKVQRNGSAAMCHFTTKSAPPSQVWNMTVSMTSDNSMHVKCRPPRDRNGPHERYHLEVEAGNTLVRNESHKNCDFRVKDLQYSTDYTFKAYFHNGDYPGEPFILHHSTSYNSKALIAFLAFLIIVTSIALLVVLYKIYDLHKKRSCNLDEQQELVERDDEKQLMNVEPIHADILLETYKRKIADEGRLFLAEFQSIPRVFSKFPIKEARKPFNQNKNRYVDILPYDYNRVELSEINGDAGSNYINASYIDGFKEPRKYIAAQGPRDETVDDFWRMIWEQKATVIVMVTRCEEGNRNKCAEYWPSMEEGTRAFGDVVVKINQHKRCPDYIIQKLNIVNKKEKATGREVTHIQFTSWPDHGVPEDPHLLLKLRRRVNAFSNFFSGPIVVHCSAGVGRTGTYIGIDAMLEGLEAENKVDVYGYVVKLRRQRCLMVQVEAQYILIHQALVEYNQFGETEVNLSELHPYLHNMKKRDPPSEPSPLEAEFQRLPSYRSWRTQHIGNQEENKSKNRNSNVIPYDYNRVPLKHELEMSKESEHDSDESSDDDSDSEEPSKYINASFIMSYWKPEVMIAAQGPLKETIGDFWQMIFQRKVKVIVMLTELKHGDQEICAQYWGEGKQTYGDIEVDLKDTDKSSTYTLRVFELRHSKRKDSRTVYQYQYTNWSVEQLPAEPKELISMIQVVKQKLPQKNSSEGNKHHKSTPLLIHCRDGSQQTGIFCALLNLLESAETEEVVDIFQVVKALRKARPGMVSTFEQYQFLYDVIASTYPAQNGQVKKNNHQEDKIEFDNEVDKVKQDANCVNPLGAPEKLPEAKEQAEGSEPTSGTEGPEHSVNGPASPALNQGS
Test: not described; same paragraph: immunoprecipitation studies reveal a physical interaction

Binder | binding result
B1 | binds
B2 | binds

Source: patent US20230272035A1 (VYCELLIX, published 2023)
